This note sets out measurements from the supplement of paper PMC7877785.

The data set in a line: self-splicing fitness, log relative to wild type (ln ratio); higher = more splicing; Tetrahymena group I intron in knt gene, E. coli kanamycin selection, DiMSum; sequences stand for … in CUCUCU…GGAGGGAAAAGUUAUCAGGCAUGCACCUGGUAGCUAGUCUUUAAACCAAUAGAUUGCAUCGGUUUAAAAGGCAAGACCGUCAAAUUGCGGGAAAGGGGUCAACAGCCGUUCAGUACCAAGUCUCAGGGGAAACUUUGAGAUGGCCUUGCAAAGGGUAUGGUAAUAAGCUGACGGACAUGGUCCUAACCACGCAGCCAAGUCCUAAGUCAACAGAUCUUCUGUUGAUAUGGAUGCAGUUCACAGACUAAAUGUCGGUCGGGGAAGAUGUAUUCUUCUCAUAAGAUAUAGUCGGACCUCUCCUUAAUGGGAGCUAGCGGAUGAAGUGAUGCAACACUGGAGCCGCUGGGAACUAAUUUGUAUGCGAAAGUAUAUUGAUUAGUUUUGGAGUACUCGUGGUCG
In a few lines:
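The eight P1ex-region nucleotides of an intron in the knt kanamycin-resistance gene on pET-22b(+) were all randomised and the library put into E. coli BL21(DE3). Six replicate transformations were grown overnight at 37°C or 30°C on LB agar with or without 25 μg/mL kanamycin, together with 100 μg/mL carbenicillin, 50 μM IPTG and 0.2% rhamnose. Colonies were pooled and amplicon-sequenced on an Illumina HiSeq 2500. Fitness from DiMSum is the error-weighted combination of wild-type-normalised replicate fold changes, kanamycin over none.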

± gives the uncertainty stated by the source.

Take CGCCAGCAAUAUUACGGGGG: the “self-splicing fitness (ln)” value is -3 ± 0.16 (30 °C) and -2.17 ± 0.2 (37 °C).
The like results for AGUGAGCAAUAUUACGAUGA were, in that order, -4.11 ± 0.39 and -2.24 ± 0.3.
In the case of ACACAGCAAUAUUACGCCAU, the “self-splicing fitness (ln)” value reads like this: (30 °C) -3.18 ± 0.21; (37 °C) -1.85 ± 0.15.
CGAGAGCAAUAUUACGCCAG: for the setting “37 °C”, the “self-splicing fitness (ln)” value is -1.51 ± 0.4.
Turning to GAUCAGCAAUAUUACGCAUG, the “self-splicing fitness (ln)” value runs as follows: (30 °C) -0.141 ± 0.095; (37 °C) 0.865 ± 0.14.
The matching figures for CCGUAGCAAUAUUACGUGCG: -2.39 ± 0.11 and -1.68 ± 0.12.
Take CGCGAGCAAUAUUACGGGAU: the “self-splicing fitness (ln)” value is, setting by setting: (30 °C) -4.13 ± 0.23; (37 °C) -2.59 ± 0.21.
The like results for CCACAGCAAUAUUACGCGUU were, in that order, -3.65 ± 0.092 and -2.91 ± 0.13.
The like results for GUCCAGCAAUAUUACGCCUU were, in that order, -0.571 ± 0.1 and -0.309 ± 0.11.
As to AGCUAGCAAUAUUACGGAUA, the “self-splicing fitness (ln)” value runs as follows: (30 °C) -2.55 ± 0.17; (37 °C) -1.87 ± 0.14.
In the case of CUUUAGCAAUAUUACGGAGA, the “self-splicing fitness (ln)” value (30 °C) was -2.74 ± 0.49.
On to GCCGAGCAAUAUUACGCACA, for which the “self-splicing fitness (ln)” value (30 °C) is -1.22 ± 0.2 and the “self-splicing fitness (ln)” value (37 °C) was -1.51 ± 0.19.
In the case of ACCGAGCAAUAUUACGCACA, the “self-splicing fitness (ln)” value is, setting by setting: (30 °C) -2.47 ± 0.11; (37 °C) -1.67 ± 0.11.
With CCCGAGCAAUAUUACGCGGA, the “self-splicing fitness (ln)” value (30 °C) was -3.21 ± 0.28 and the “self-splicing fitness (ln)” value (37 °C) is -2.23 ± 0.2.
On to AUAAAGCAAUAUUACGAGGC, for which the “self-splicing fitness (ln)” value is -3.29 ± 0.17 (30 °C) and -2.7 ± 0.32 (37 °C).
The like results for UUCCAGCAAUAUUACGCCUA were, in that order, -0.199 ± 0.076 and 0.206 ± 0.091.
With CGAGAGCAAUAUUACGUUUG, the “self-splicing fitness (ln)” value by setting is: (30 °C) -4.63 ± 0.28; (37 °C) -2.12 ± 0.22.
Consider AGUUAGCAAUAUUACGUCUA, for which the “self-splicing fitness (ln)” value is, setting by setting: (30 °C) -0.594 ± 0.12; (37 °C) -0.0617 ± 0.1.
For GGGAAGCAAUAUUACGCUUU, the “self-splicing fitness (ln)” value (30 °C) was -3.54 ± 0.24.
Take AGUUAGCAAUAUUACGAAGU: the “self-splicing fitness (ln)” value was -2.91 ± 0.17 (30 °C) and -1.47 ± 0.15 (37 °C).
The matching figures for GGCUAGCAAUAUUACGUUGG: -2.34 ± 0.16 and -3.24 ± 0.32.
Turning to GAUAAGCAAUAUUACGCUCC, the “self-splicing fitness (ln)” value (30 °C) was -1.82 ± 0.34.
Turning to UUAGAGCAAUAUUACGGCUC, the “self-splicing fitness (ln)” value runs as follows: (30 °C) -3.52 ± 0.35; (37 °C) -1.68 ± 0.28.
For UCAUAGCAAUAUUACGCAUG, the “self-splicing fitness (ln)” value reads like this: (30 °C) -4.52 ± 0.27; (37 °C) -2.77 ± 0.23.
Regarding CAAAAGCAAUAUUACGCCCC, the “self-splicing fitness (ln)” value (30 °C) is -3.27 ± 0.3.
With GGAUAGCAAUAUUACGUGCG, the “self-splicing fitness (ln)” value (30 °C) was -0.974 ± 0.094 and the “self-splicing fitness (ln)” value (37 °C) was -0.046 ± 0.12.
Take GUUCAGCAAUAUUACGGCGU: the “self-splicing fitness (ln)” value was -0.298 ± 0.085 (30 °C) and 0.138 ± 0.11 (37 °C).
Take GCUGAGCAAUAUUACGAGCA: the “self-splicing fitness (ln)” value runs as follows: (30 °C) -1.54 ± 0.14; (37 °C) -1.34 ± 0.15.
For the sequence UGAGAGCAAUAUUACGAGUG, the “self-splicing fitness (ln)” value by setting is: (30 °C) -4.04 ± 0.29; (37 °C) -2.93 ± 0.26.
With GUAGAGCAAUAUUACGCCUU, the “self-splicing fitness (ln)” value was -0.0606 ± 0.13 (30 °C) and 0.0599 ± 0.17 (37 °C).
Regarding UGUCAGCAAUAUUACGUCAC, the “self-splicing fitness (ln)” value runs as follows: (30 °C) -3.9 ± 0.39; (37 °C) -3.29 ± 0.37.
The matching figures for GGUGAGCAAUAUUACGCACU: -3.35 ± 0.44 and -2.9 ± 0.43.
The like results for AGUAAGCAAUAUUACGCCCU were, in that order, -0.35 ± 0.17 and -0.62 ± 0.16.
The like results for GCCCAGCAAUAUUACGCCAA were, in that order, -3.11 ± 0.14 and -1.71 ± 0.1.
As for AACAAGCAAUAUUACGGGUC, the “self-splicing fitness (ln)” value reads like this: (30 °C) -1.68 ± 0.14; (37 °C) -1.65 ± 0.17.
Turning to UUAGAGCAAUAUUACGCGGU, the “self-splicing fitness (ln)” value (30 °C) is -2.71 ± 0.25 and the “self-splicing fitness (ln)” value (37 °C) was -2.81 ± 0.48.
The like results for AAGGAGCAAUAUUACGUCCC were, in that order, 0.0851 ± 0.15 and -1.06 ± 0.23.
The matching figures for AUGCAGCAAUAUUACGCCCU: -0.387 ± 0.22 and 0.0709 ± 0.25.
GGUCAGCAAUAUUACGGCAC: the “self-splicing fitness (ln)” value is, setting by setting: (30 °C) -0.775 ± 0.13; (37 °C) 0.566 ± 0.16.
